{"source": "patent US20090060925A1", "about": "“Rage Fusion Proteins and Methods of Use” (THE TRUSTEES OF COLUMBIA UNIVERSITY IN THE CITY OF, priority 2004, published 2009)", "molecules": {"B1": {"name": "TTP-4000: four domain RAGE fusion protein, SEQ ID NO: 32: human RAGE amino acids 1-251 linked to CH2 and CH3 domains of human IgG (protein, listed as Homo sapiens)", "chain": "MAAGTAVGAWALVLSLWGAVVGAQNITARIGEPLVLKCKGAPKKPPQRLEWKLNTGRTEAWKVLSPQGGGPWDSVARVLPNGSLFLPAVGIQDEGIFRCQAMNRNGKETKSNYRVRVYQIPGKPEIVDSASELTAGVPNKVGTCVSEGSYPAGTLSWHLDGKPLVPNEKGVSVKEQTRRHPETGLFTLQSELMVTPARGGDPRPTFSCSFSPGLPRHRALRTAPIQPRVWEPVPLEEVQLVVEPEGGAVAPPSVFLFPPKPKDTLMISRTPEVTCVVVDVSHEDPEVKFNWYVDGVEVHNAKTKPREEQYNSTYRVVSVLTVLHQDWLNGKEYKCKVSNKALPAPIEKTISKAKGQPREPQVYTLPPSRDELTKNQVSLTCLVKGFYPSDIAVEWESNGQPENNYKTTPPVLDSDGSFFLYSKLTVDKSRWQQGNVFSCSVMHEALHNHYTQKSLSLSPGK"}}, "key": {"[1]": {"tested_on": "S100b/RAGE-induced production of TNF-α in THP-1 cells", "assay": "Inhibition of S100b/RAGE-induced production of TNF-α in THP-1 cells", "format": "cell-based", "conditions": "10 μg protein, S100b 0.1 mg/ml, 24 hours", "procedure": "THP-1 myeloid cells may be cultured in RPMI-1640 media supplemented with 10% FBS and induced to secrete TNF-α via stimulation of RAGE with S100b. When such stimulation occurs in the presence of a RAGE fusion protein, induction of TNF-α by S100b binding to RAGE may be inhibited.\nPrevious work has shown that the myeloid THP-1 cells may secrete TNF-α in response to RAGE ligands. In this assay, THP-1 cells were cultured in RPMI-1640 media supplemented with 10% FBS using a protocol provided by ATCC. […] The amount of TNF-α secreted by the THP-1 cells was measured 24 hours after the addition of the proteins to the cell culture using a commercially available ELISA kit for TNF-α (R&D Systems, Minneapolis, Minn.)."}, "[2]": {"tested_on": "Fc receptor", "assay": "Fc receptor activation, TNF-α secretion from THP-1 cells", "format": "cell-based", "conditions": "well precoated with 10 ug/well heat aggregated protein; 24 hours", "source_text": "Fc stimulation results in TNF-α secretion."}, "[3]": {"tested_on": "animal model of stroke", "assay": "Mouse model of stroke (carotid artery ligation and reperfusion, infarct)", "format": "in vivo", "conditions": "Table 2", "experimental": "In this model, the middle carotid artery of a mouse was ligated for 1 hour followed by 23 hours of reperfusion at which point the mice were sacrificed and the area of the infarct in the brain was assessed. […] Mice were injected intraperitoneally, 1 hour after the initiation of ischemia. Mice were subjected to one hour of cerebral ischemia followed by 24 hours of reperfusion. To induce ischemia, each mouse was anesthetized and body temperature was maintained at 36-37° C. by external warming. The left common carotid artery (CCA) was exposed through a midline incision in the neck. A microsurgical clip was placed around the origin of the internal carotid artery (ICA). […] After the nylon suture had been in place for 1 hour, the animal was re-anesthetized, rectal temperature was recorded and the suture was removed and the incision closed. Infarct volume was determined by anesthetizing the animals with an intraperitoneal injection of sodium pentobarbital (50 mg/kg) and then removing the brains. […] The infarct area in each section was determined with a computer-assisted image analysis system, consisting of a Power Macintosh computer equipped with a Quick Capture frame grabber card, Hitachi CCD camera mounted on a camera stand. […] The images were captured and the total area of infarct was determined over the sections. […] Summing the infarct volumes of the sections calculated the total infarct volume. […]"}, "[4]": {"tested_on": "amyloid-beta", "assay": "Competition of a RAGE ligand with immobilized amyloid-beta for binding to the fusion protein", "conditions": "RAGE ligand FAC 10 μM", "procedure": "The fusion protein of the present invention may also be used to identify compounds having the ability to bind to RAGE.\nKnown RAGE ligands were coated onto the surface of Maxisorb plates at a concentration of 5 micrograms per well. Plates were incubated at 4° C. overnight. Following ligand incubation, plates were aspirated and a blocking buffer of 1% BSA in 50 mM imidizole buffer (pH 7.2) was added to the plates for 1 hour at room temperature. The plates were then aspirated and/or washed with wash buffer (20 mM Imidizole, 150 mM NaCl, 0.05% Tween-20, 5 mM CaCl2 and 5 mM MgCl2, pH 7.2). […] The fusion protein was added at increasing dilutions of the initial sample. The RAGE fusion protein was allowed to incubate with the immobilized ligand at 37° C. for one hour after which the plate was washed and assayed for binding of the fusion protein. Binding was detected by the addition of an immunodetection complex containing a monoclonal mouse anti-human IgG1 diluted 1:11,000 to a final assay concentration (FAC) of 21 ng/100 μL, a biotinylated goat anti-mouse IgG diluted 1:500, to a FAC of […], and an avidin-linked alkaline phosphatase. […] Binding of the complex to the immobilized fusion protein was quantified by measuring conversion of PNPP to para-nitrophenol (PNP) which was measured spectrophotometrically at 405 nm. […]"}}, "data": [{"molecule": "B1", "values": [{"measurement": "effect on S100b induction of TNF-α, in words", "setting": "[1]", "result": "at least as effective in blocking S100b induction of TNF-α as is sRAGE"}, {"measurement": "TNF secreted by THP-1 cells", "setting": "[2]", "result": "less than 2 ng/well"}, {"measurement": "limiting the area of infarct, compared with sRAGE", "setting": "[3]", "result": "more efficacious than sRAGE"}, {"measurement": "binding of fusion protein to immobilized amyloid-beta inhibited by the RAGE ligand", "setting": "[4]; fusion protein initial solution diluted 1:10", "result": "completely inhibited"}, {"measurement": "binding of fusion protein to immobilized amyloid-beta inhibited by the RAGE ligand", "setting": "[4]; fusion protein initial solution diluted 1:30", "result": "completely inhibited"}]}]}
